# According to US20040220079:
# T1: synthetic peptide Nch (VGSGVLLSRK)
# T1 chain: VGSGVLLSRK
# T2: synthetic peptide derived from the APP beta-secretase site containing the Swedish mutation (SEVNL/DAEFR)
# T2 chain: SEVNLDAEFR
# T3: peptide derived from the processing site of presenilin 1 (SVNM/AEGD)
# T3 chain: SVNMAEGD
# T4: synthetic peptide PS1-gamma (LVNMAEGD)
# T4 chain: LVNMAEGD
# T5: synthetic peptide derived from the APP beta-secretase site (SEVKM/DAEFR)
# T5 chain: SEVKMDAEFR
# What was measured:
# [1] = target: T1, synthetic peptide Nch (VGSGVLLSRK)
# [2] = target: T2, synthetic peptide derived from the APP …
# [3] = target: T3, peptide derived from the processing …
# [4] = target: oxidized bovine insulin B chain, P01317
# [5] = target: T4, synthetic peptide PS1-gamma (LVNMAEGD)
# [6] = target: T5, synthetic peptide derived from the APP …
# Chain of oxidized bovine insulin B chain, P01317 (P01317 25-54): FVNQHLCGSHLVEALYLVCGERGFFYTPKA
protein,measurement,setting,value
M2pd (modified M2 containing amino acids from Ala-8p to Ala326) (protein) TQHGIRLPLRSGLGGAPLGLRLPRETDEEPEEPGRRGSFVEMVDNLRGKSGQGYYVEMTVGSPPQTLNILVDTGSSNFAVGAAPHPFLHRYYQRQLSSTYRDLRKGVYVPYTQGKWEGELGTDLVSIPHGPNVTVRANIAAITESDKFFINGSNWEGILGLAYAEIARPDDSLEPFFDSLVKQTHVPNLFSLQLCGAGFPLNQSEVLASVGGSMIIGGIDHSLYTGSLWYTPIRREWYYEVIIVRVEINGQDLKMDCKEYNYDKSIVDSGTTNLRLPKKVFEAAVKSIKAASSTEKFPDGFWLGEQLVCWQAGTTPWNIFPVISLYLMGEVTNQSFRITILPQQYLRPVEDVATSQDDCYKFAISQSSTGTVMGAVIMEGFYVVFDRARKRIGFAVSACHVHDEFRTAAVEGPFVTLDMEDCGYNIPQTDESTLMTIAYVMAAICALFMLPLCLMVCQWRCLRCLRQQHDDFADDISLLK,hydrolytic sites,[1],3 sites
same,Km,[2],"Km, 1 mM"
same,fold increase of kcat/Km over native APP,[2],60-fold increase of kcat/Km over that for native APP
same,kcat,[2],"kcat, 2.45 s^-1"
same,kcat/Km,[2],"kcat/Km, 2450 s^-1M^-"
same,Km,[3],"Km, 15.2 mM"
same,kcat,[3],"kcat, 0.67 s^-1"
same,kcat/Km,[3],"kcat/Km, 43.8 s^-1M^-1"
same,hydrolytic sites,[4],2 sites
same,hydrolytic sites,[5],A single cleavage site was observed in synthetic peptide PS1-gamma
same,kcat/Km,[6],"kcat/Km, 39.9 s^-1M^-1"
same,cleavage of proteins,Native proteins,Native proteins were not cleaved by M2pd
